Results reported in the RNAGym collection of RNA variant scans (doi:10.1093/molbev/msab373).

B1: Azoarcus group I ribozyme (parent)
chain: GUGCCUUGCGCCGGGAAACCACGCAAGGGAUGGUGUCAAAUUCGGCGAAACCUAAGCGCCCGCCCGGGCGUAUGGCAACGCCGAGCCAAGCUUCGGCGCCUGCGCCGAUGAAGGUGUAGAGACUAGACGGCACCCACCUAAGGCAAACGCUAUGGUGAAGGCAUAGUCCAGGGAGUGGCGAAAGUCACACAAACCGG

Variants of: B1
Assay: reverse-splicing fitness (ratio to wild type); higher = more active; in vitro selection; Mg2+ level not given
Summary of the method: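 An in vitro group I ribozyme library with randomized positions was T7-transcribed and gel-purified. In triplicate, 10 pmol RNA in EPPS pH 7.5 was reacted with 50 pmoles of a 30-nt RNA substrate for 1 h at 37 °C across several added MgCl2 levels (1–48 mM), then stopped with EDTA. Products were reverse transcribed from a substrate-complementary primer, PCR-amplified and sequenced (HiSeq 4000). Fitness is a variant's read proportion after selection over that before, normalised to wild type.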

Variant	reverse-splicing fitness
C82U A120G A145U C150G	0.00697
C82U A120U A145C C150G C169U U176G	0.00191
C82U A120U A145C C150G C169U U176A	0.00247
C82U A120U A145C C150G C169U U176C	0.00224
C82U A120U A145C C150A C169U U176A	0.00218
C82U A120U A145C C150A C169U U176G	0.00151
C82U A120U A145C C150A C169U U176C	0.00195
C82U A120U C150A C169G	0.00313
C82U A120U C150A C169A	0.00297
C82U A120U C150A C169U	0.00341
C82U A120U A145C C150G C169A U176C	0.00196
C82U A120U A145C C150G C169A U176A	0.00201
C82U A120U A145C C150G C169A U176G	0.00188
C82U A120U A145C C169U U176A	0.00253
C82U A120U A145C C169U U176C	0.00289
C82U A120U A145C C169U U176G	0.00172
C82U A120U C150G C169G	0.0055
C82U A120U C150G C169U	0.00386
C82U A120U C150G C169A	0.00679
C82U A120U A145G C150U C169U	0.00625
C82U A120U A145G C150U C169A	0.00495
C82U A120U A145G C150U C169G	0.00546
C82U A120G C150A C169U U176C	0.0174
C82U A120G C150A C169U U176G	0.00606

Variant	reverse-splicing fitness
C82U A120G C150A C169U U176A	0.0211
C82U A120U A145C C150G C169U	0.00275
C82U A120U A145C C150G C169A	0.00211
C82U A120U A145C C150G C169G	0.00257
C82U A120U A145G C150G U176A	0.00711
C82U A120U A145G C150G U176G	0.00382
C82U A120U A145G C150G U176C	0.0113
C82U A120G A145U C150A U176G	0.00337
C82U A120G A145U C150A U176C	0.0109
C82U A120G A145U C150A U176A	0.00948
C82U A120G A145U C150G U176G	0.00275
C82U A120G A145U C150G U176C	0.00808
C82U A120G A145U C150G U176A	0.00575
C82U A120U A145U C169U U176A	0.00227
C82U A120U A145U C169U U176C	0.00358
C82U A120U A145U C169U U176G	0.00161
C82U A120G C150G U176A	0.00577
C82U A120G C150G U176G	0.00278
C82U A120G C150G U176C	0.00821
C82U A120U C150G	0.0156
C82U A120U C150A	0.0169
C82U A120U A145U C150U C169G U176A	0.00254
C82U A120U A145U C150U C169G U176G	0.00157
C82U A120U A145U C150U C169G U176C	0.00299

Variant	reverse-splicing fitness
C82U A120U A145C C150U C169G U176A	0.00259
C82U A120U A145C C150U C169G U176C	0.00188
C82U A120U A145C C150U C169G U176G	0.00153
C82U A120G C169G U176C	0.0246
C82U A120G C169G U176A	0.0215
C82U A120G C169G U176G	0.00332
C82U A120G C150U	0.0161
C82U A120G C150A	0.00924
C82U A120G C150G	0.00711
C82U A120G C150G C169A U176C	0.00979
C82U A120G C150G C169A U176A	0.00927
C82U A120G C150G C169A U176G	0.00547
C82U A120U A145G C169A U176A	0.0025
C82U A120U A145G C169A U176C	0.00239
C82U A120U A145G C169A U176G	0.00152
C82U A120G A145U C169U U176C	0.0159
C82U A120G A145U C169U U176G	0.00326
C82U A120G A145U C169U U176A	0.0216
C82U A120U A145G C150A U176A	0.0113
C82U A120U A145G C150A U176C	0.0141
C82U A120U A145G C150A U176G	0.00354
C82U A120U A145C C150U C169U	0.00331
C82U A120U A145C C150U C169G	0.00257
C82U A120U A145C C150U C169A	0.00167

Variant	reverse-splicing fitness
C82U A120G A145U C150U U176C	0.0143
C82U A120G A145U C150U U176A	0.0102
C82U A120G A145U C150U U176G	0.00369
C82U A120U A145C C150A C169A	0.00144
C82U A120U A145C C150A C169G	0.00203
C82U A120U A145C C150A C169U	0.00232
C82U A120G A145U C150G C169U U176C	0.0108
C82U A120G A145U C150G C169U U176G	0.0036
C82U A120G A145U C150G C169U U176A	0.0132
C82U A120U A145C C150U C169U U176G	0.0015
C82U A120U A145C C150U C169U U176C	0.00187
C82U A120U A145C C150U C169U U176A	0.00232
C82U A120G C150G C169G U176G	0.00357
C82U A120G C150G C169G U176C	0.0046
C82U A120G C150G C169G U176A	0.00641
C82U A120U A145G C150U C169U U176A	0.00396
C82U A120U A145G C150U C169U U176C	0.00389
C82U A120U A145G C150U C169U U176G	0.00198
C82U A120G A145U C169A	0.017
C82U A120G A145U C169U	0.0182
C82U A120G A145U C169G	0.0232
C82U A120U A145G C150A C169G U176A	0.00525
C82U A120U A145G C150A C169G U176G	0.00193
C82U A120U A145G C150A C169G U176C	0.00372

Variant	reverse-splicing fitness
C82U A120U A145G C150G C169G U176G	0.00346
C82U A120U A145G C150G C169G U176C	0.00499
C82U A120U A145G C150G C169G U176A	0.00758
C82U A120U A145U C150A C169A U176A	0.00221
C82U A120U A145U C150A C169A U176G	0.00164
C82U A120U A145U C150A C169A U176C	0.00203
C82U A120G C150U C169A U176C	0.014
C82U A120G C150U C169A U176A	0.016
C82U A120G C150U C169A U176G	0.00423
C82U A120U C150A C169U U176C	0.00331
C82U A120U C150A C169U U176A	0.00411
C82U A120U C150A C169U U176G	0.00201
C82U A120G C150G C169U U176G	0.00521
C82U A120G C150G C169U U176C	0.0118
C82U A120G C150G C169U U176A	0.0125
C82U A120G C150U U176G	0.00504
C82U A120G C150U U176A	0.0106
C82U A120G C150U U176C	0.0148
C82U A120U A145G C150A C169U	0.00334
C82U A120U A145G C150A C169G	0.00351
C82U A120U A145G C150A C169A	0.00483
C82U A120G A145U C150A C169U U176G	0.00395
C82U A120U A145G U176A	0.0429
C82U A120U A145G U176G	0.0114

Variant	reverse-splicing fitness
C82U A120U A145G U176C	0.076
C82U A120U A145G C150U C169A U176A	0.00476
C82U A120U A145G C150U C169A U176C	0.00278
C82U A120U A145G C150U C169A U176G	0.0022
C82U A120G A145U C150G C169A	0.00915
C82U A120G A145U C150G C169G	0.00815
C82U A120G A145U C150G C169U	0.00878
C82U A120U A145U C169G U176G	0.0013
C82U A120U A145U C169G U176A	0.00182
C82U A120U A145U C169G U176C	0.00267
C82U A120G C150U C169G U176C	0.0189
C82U A120G C150U C169G U176G	0.00429
C82U A120G C150U C169G U176A	0.015
C82U A120U A145C C150U U176A	0.0114
C82U A120U A145C C150U U176G	0.00482
C82U A120U A145C C150U U176C	0.0162
C82U A120U C150G C169U U176A	0.00334
C82U A120U A145U C150G C169G U176C	0.00209
C82U A120U A145U C150G C169G U176A	0.00198
C82U A120U A145U C150G C169G U176G	0.00173
C82U A120U A145C C150A C169G U176C	0.00196
C82U A120U A145C C150A C169G U176G	0.00161
C82U A120U A145C C150A C169G U176A	0.00223
C82U A120G C150U C169U	0.0137

Variant	reverse-splicing fitness
C82U A120G C150U C169G	0.0167
C82U A120G C150U C169A	0.0144
C82U A120U A145C C150A C169A U176C	0.00171
C82U A120U A145C C150A C169A U176A	0.00177
C82U A120U A145C C150A C169A U176G	0.00165
C82U A120U A145U C150G C169U U176G	0.00186
C82U A120U A145U C150G C169U U176C	0.00297
C82U A120U A145U C150G C169U U176A	0.00257
C82U A120U A145C C150A U176C	0.00532
C82U A120U A145C C150A U176A	0.00377
C82U A120U A145C C150A U176G	0.00282
C82U A120U A145C C150U C169A U176G	0.00165
C82U A120U A145C C150U C169A U176C	0.00189
C82U A120U A145C C150U C169A U176A	0.00242
C82U A120U A145U C150A C169U U176C	0.002
C82U A120U A145U C150A C169U U176A	0.0025
C82U A120U A145U C150A C169U U176G	0.00172
C82U A120U A145U C150A C169G U176A	0.00218
C82U A120U A145U C150A C169G U176G	0.00147
C82U A120U A145U C150A C169G U176C	0.00274
C82U A120U C150G C169G U176G	0.0022
C82U A120U C150G C169G U176C	0.00212
C82U A120U C150G C169G U176A	0.00396
